Source: article PMC4786110
pKd: −log10 of the molar value.

Biological target: aMh-FcG2a, nanobody aMh fused with the Fc domain of mouse IgG2a (Camelus bactrianus | camel | mouse)
Assay: SPR; Biacore 3000; aMh-Fc captured by anti-mouse IgG immobilised on a CM5 chip; antigen flowed at 5.95-595 nM; 25°C, HBS-EP pH 7.4, 30 μl/min; 1:1 fitting

aMh-FcG2a, nanobody aMh fused with the Fc domain of mouse IgG2a (Camelus bactrianus | camel | mouse), sequence (heavy, as listed by the source): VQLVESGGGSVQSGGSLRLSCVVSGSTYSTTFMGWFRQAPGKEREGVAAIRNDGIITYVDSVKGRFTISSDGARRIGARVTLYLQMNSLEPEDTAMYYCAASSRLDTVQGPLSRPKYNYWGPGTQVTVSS

ABC transporter substrate binding protein (MH3620) of Mycoplasma hominis (natural protein)
pKd: 8.23 | koff: 0.000106 s⁻¹ | kon: 17800 M⁻¹ s⁻¹
